Results on 32 molecules are retold here after US20050282739A1.

Square brackets hold non-standard residues; d marks the D form. Ends that are not written are not given here. Nle = CCCC[C@H](N)C(=O)O

Assay [1] addresses melanocortin-1 receptor (MC1-R) of B-16 mouse melanoma cells (mouse) (UniProt Q01727). Nature of the assay: 125I-NDP-α-MSH competition, B-16 membranes.
Assay [2] has as its target human melanocortin-4 receptor (hMC4-R) (human) (UniProt P32245). Kind of assay: 125I-NDP-α-MSH competition, hMC4-R membranes.
The target of assay [3] is bombesin receptor of rat brain membranes (rat). Kind of assay: 125I-Bombesin competition, rat brain membranes.
Assay [4] deals with human melanocortin-3 receptor (hMC3-R) (human) (UniProt P41968). Nature of the assay: 125I-NDP-α-MSH competition, hMC3-R membranes.
The target of assay [5] is human melanocortin-5 receptor (hMC5-R) (human) (UniProt P33032). Nature of the assay: 125I-NDP-α-MSH competition, hMC5-R membranes.
human melanocortin-5 receptor (hMC5-R) (human), sequence (P33032 whole entry): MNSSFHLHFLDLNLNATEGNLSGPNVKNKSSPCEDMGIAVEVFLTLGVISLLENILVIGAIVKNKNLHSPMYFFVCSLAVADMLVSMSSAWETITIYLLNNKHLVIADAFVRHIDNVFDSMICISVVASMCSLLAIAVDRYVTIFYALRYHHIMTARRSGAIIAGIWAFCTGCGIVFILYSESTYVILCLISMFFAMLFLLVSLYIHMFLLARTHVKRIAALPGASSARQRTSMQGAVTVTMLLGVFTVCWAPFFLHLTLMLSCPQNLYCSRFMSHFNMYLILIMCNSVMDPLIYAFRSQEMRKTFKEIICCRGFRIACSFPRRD

melanocortin-1 receptor (MC1-R) of B-16 mouse melanoma cells (mouse), sequence (Q01727 whole entry): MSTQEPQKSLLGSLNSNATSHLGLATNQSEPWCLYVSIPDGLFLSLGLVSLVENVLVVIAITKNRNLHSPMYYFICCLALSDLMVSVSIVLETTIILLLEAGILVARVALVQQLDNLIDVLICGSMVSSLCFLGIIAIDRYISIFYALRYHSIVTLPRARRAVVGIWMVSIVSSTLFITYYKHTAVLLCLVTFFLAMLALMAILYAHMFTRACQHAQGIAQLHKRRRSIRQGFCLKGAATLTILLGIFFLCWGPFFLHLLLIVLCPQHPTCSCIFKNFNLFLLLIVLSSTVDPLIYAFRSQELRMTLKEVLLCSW
human melanocortin-4 receptor (hMC4-R) (human), sequence (P32245 whole entry): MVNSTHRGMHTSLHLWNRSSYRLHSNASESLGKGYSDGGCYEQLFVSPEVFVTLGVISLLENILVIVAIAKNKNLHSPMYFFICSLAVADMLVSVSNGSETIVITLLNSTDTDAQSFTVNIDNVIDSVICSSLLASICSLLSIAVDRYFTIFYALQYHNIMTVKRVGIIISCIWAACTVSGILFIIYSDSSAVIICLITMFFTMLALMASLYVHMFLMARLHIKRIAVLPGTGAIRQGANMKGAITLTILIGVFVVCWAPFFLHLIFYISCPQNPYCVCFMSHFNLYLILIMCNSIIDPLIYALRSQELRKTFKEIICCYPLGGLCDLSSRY
human melanocortin-3 receptor (hMC3-R) (human), sequence (P41968 whole entry): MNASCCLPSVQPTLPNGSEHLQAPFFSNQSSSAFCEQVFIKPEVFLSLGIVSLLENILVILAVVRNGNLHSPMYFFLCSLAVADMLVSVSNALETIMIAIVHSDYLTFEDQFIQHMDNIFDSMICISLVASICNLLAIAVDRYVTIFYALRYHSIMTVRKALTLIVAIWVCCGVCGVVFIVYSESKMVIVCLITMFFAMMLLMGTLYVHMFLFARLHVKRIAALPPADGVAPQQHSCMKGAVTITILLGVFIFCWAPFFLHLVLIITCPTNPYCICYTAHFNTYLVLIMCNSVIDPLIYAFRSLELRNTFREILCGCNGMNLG

B1: metallopeptide 4-9 (peptide)
peptide: YV[Nle]CGHFRWDRF-NH2
modifications: also: oxorhenium(V) N3S1 chelate: C4 SG + backbone N of V2, X3, C4, bridge at 4 via Re(V)=O, other end not in the chain
As usually defined, the % Inhibition is the relative decrease from the control value, in per cent. In the case of B1, the % Inhibition at 1 µM in assay [1] is 1%; in assay [2], 4%.

B2: metallopeptide 12-1 (peptide)
peptide: [dF]QWVCGHLL-NH2
modifications: bridge (positions not given here) via ReOCl3(PPh3)2; also: oxorhenium(V) N3S1 tetradentate complex at Cys 5
As to B2, the % Inhibition in assay [3] worked out at 2%.

B3: metallopeptide 4-7 (peptide)
peptide: YV[Nle]GHCFRWDRF-NH2
modifications: also: oxorhenium(V) N3S1 chelate: C6 SG + backbone N of G4, H5, C6, bridge at 6 via Re(V)=O, other end not in the chain
As for B3, the % Inhibition at 1 µM in assay [1] and in assay [2] was 4% each time.

B4: metallopeptide 4-10 (peptide)
peptide: YVC[Nle]GHFRWDRF-NH2
modifications: bridge (positions not given here); not fully specified (bridges); printed as Tyr-Val-Cys-Nle-Gly-His-Phe-Arg-Trp-Asp-Arg-Phe-NH2.; also: oxorhenium(V) N3S1 complex
Consider B4, for which the % Inhibition at 1 µM in assay [2] stood at 2%.

As to Ac-SYS[Nle]ECHFRWGKPV-NH2 (also: oxorhenium(V) N3S1 chelate at Cys6) [metallopeptide 1-9], the % Inhibition at 1 µM in assay [2] was 3%.

B5: metallopeptide 4-8 (peptide)
peptide: YV[Nle]GCHFRWDRF-NH2
modifications: also: oxorhenium(V) N3S1 chelate: C5 SG + backbone N of X3, G4, C5, bridge at 5 via Re(V)=O, other end not in the chain
On to B5, for which the % Inhibition at 1 µM in assay [2] is -1%.

B6: metallopeptide 10-3 (peptide)
peptide: [dF]QWA[dV]CHLL-NH2
modifications: bridge (positions not given here) via ReOCl3(PPh3)2; also: oxorhenium(V) N3S1 tetradentate complex at Cys 6
As to B6, the % Inhibition in assay [3] turned out to be 7%.

B7: metallopeptide 10-4 (peptide)
peptide: [dF]QW[dA]VCHLL-NH2
modifications: bridge (positions not given here) via ReOCl3(PPh3)2; also: oxorhenium(V) N3S1 tetradentate complex at Cys 6
With B7, the % Inhibition in assay [3] amounted to 2%.

Consider QWAVC-NH2 (also: bridge at 5 via oxorhenium(V) N3S1 chelate, other end not in the chain) [metallopeptide 11-13], for which the % Inhibition in assay [3] was -50%.

B8: metallopeptide 12-2 (peptide)
peptide: [dF]QWACVHLL-NH2
modifications: bridge (positions not given here) via ReOCl3(PPh3)2; also: oxorhenium(V) N3S1 tetradentate complex at Cys 5
As to B8, the % Inhibition in assay [3] was 3%.

B9: metallopeptide 11-1 (peptide)
peptide: [dF]QWAVCHL-NH2
modifications: bridge (positions not given here) via ReOCl3(PPh3)2; also: oxorhenium(V) N3S1 tetradentate complex at Cys 6
Take B9: the % Inhibition in assay [3] came to 98%.

With Ac-SYS[Nle]EHFRWGKGCV-NH2 (also: oxorhenium(V) N3S1 chelate at Cys13) [metallopeptide 1-2], the % Inhibition at 1 µM in assay [4] is 6%.

B10: metallopeptide 4-6 (peptide)
peptide: YV[Nle]GHFCRWDRF-NH2
modifications: also: oxorhenium(V) N3S1 chelate: C7 SG + backbone N of H5, F6, C7, bridge at 7 via Re(V)=O, other end not in the chain
Take B10: the % Inhibition at 1 µM in assay [1] was -8%.

Regarding WAVC-NH2 (also: bridge at 4 via oxorhenium(V) N3S1 chelate, other end not in the chain) [metallopeptide 11-14], the % Inhibition in assay [3] was determined as 8%.

B11: metallopeptide 11-3 (peptide)
peptide: [dF]QWAVC-NH2
modifications: bridge (positions not given here) via ReOCl3(PPh3)2; also: oxorhenium(V) N3S1 tetradentate complex at Cys 6
As to B11, in assay [3], the % Inhibition is -81%.

B12: metallopeptide 11-2 (peptide)
peptide: [dF]QWAVCH-NH2
modifications: bridge (positions not given here) via ReOCl3(PPh3)2; also: oxorhenium(V) N3S1 tetradentate complex at Cys 6
For the molecule B12, the % Inhibition in assay [3] is 25%.

B13: metallopeptide 10-5 (peptide)
peptide: [dF]Q[dW]AVCHLL-NH2
modifications: bridge (positions not given here) via ReOCl3(PPh3)2; also: oxorhenium(V) N3S1 tetradentate complex at Cys 6
Take B13: the % Inhibition in assay [3] is 6%.

On to Ac-SYS[dC][Nle]EHFRWGKPV-NH2 (also: oxorhenium(V) N3S1 chelate at D-Cys4) [metallopeptide 2-11], for which the % Inhibition at 1 µM in assay [4] is 5%.

Consider WAVCHL-NH2 (also: bridge at 4 via oxorhenium(V) N3S1 chelate, other end not in the chain) [metallopeptide 11-8], for which the % Inhibition in assay [3] is 13%.

On to AVCH-NH2 (also: bridge at 3 via oxorhenium(V) N3S1 chelate, other end not in the chain) [metallopeptide 11-12], for which, in assay [3], the % Inhibition was found to be 5%.

B14: metallopeptide 12-4 (peptide)
peptide: [dF]QWVCHLL-NH2
modifications: bridge (positions not given here) via ReOCl3(PPh3)2; also: oxorhenium(V) N3S1 tetradentate complex at Cys 5
Take B14: the % Inhibition in assay [3] was determined as 5%.

Turning to Ac-SYS[Nle]EHFRWGCKPV-NH2 (also: oxorhenium(V) N3S1 chelate at Cys11) [metallopeptide 1-4], the % Inhibition at 1 µM in assay [5] stood at 6%.

Ac-SYS[Nle]CEHFRWGKPV-NH2 (also: oxorhenium(V) N3S1 chelate at Cys5) [metallopeptide 1-10]: the % Inhibition at 1 µM in assay [2] is 7%.

For the molecule QWAVCHLL-NH2 (also: bridge at 5 via oxorhenium(V) N3S1 chelate, other end not in the chain) [metallopeptide 11-4], in assay [3], the % Inhibition is 25%.

B15: metallopeptide 12-6 (peptide)
peptide: [dF]QWCVHLL-NH2
modifications: bridge (positions not given here) via ReOCl3(PPh3)2; also: oxorhenium(V) N3S1 tetradentate complex at Cys 4
B15: in assay [3], the % Inhibition was 10%.

B16: metallopeptide 10-1 (peptide)
peptide: [dF]QWAVC[dH]LL-NH2
modifications: bridge (positions not given here) via ReOCl3(PPh3)2; also: oxorhenium(V) N3S1 tetradentate complex at Cys 6
As to B16, the % Inhibition in assay [3] stood at 10%.

B17: metallopeptide 12-3 (peptide)
peptide: [dF]QWVCVHLL-NH2
modifications: bridge (positions not given here) via ReOCl3(PPh3)2; also: oxorhenium(V) N3S1 tetradentate complex at Cys 5
On to B17, for which the % Inhibition in assay [3] was 14%.

On to AVCHLL-NH2 (also: bridge at 3 via oxorhenium(V) N3S1 chelate, other end not in the chain) [metallopeptide 11-6], for which the % Inhibition in assay [3] is 6%.

Take AVCHL-NH2 (also: bridge at 3 via oxorhenium(V) N3S1 chelate, other end not in the chain) [metallopeptide 11-9]: the % Inhibition in assay [3] amounted to 7%.

In the case of WAVCH-NH2 (also: bridge at 4 via oxorhenium(V) N3S1 chelate, other end not in the chain) [metallopeptide 11-11], the % Inhibition in assay [3] was -1%.

For WAVCHLL-NH2 (also: bridge at 4 via oxorhenium(V) N3S1 chelate, other end not in the chain) [metallopeptide 11-5], the % Inhibition in assay [3] is 18%.

Take QWAVCHL-NH2 (also: bridge at 5 via oxorhenium(V) N3S1 chelate, other end not in the chain) [metallopeptide 11-7]: the % Inhibition in assay [3] was 5%.
